± gives the standard error. Variants at the floor of the assay were thinned out.
B1: glmS ribozyme (parent)
chain: AUAAAAGCGCCAGAACUACAGAAAUGUAGUUGACGAGGAGGAGGUUUAUCGAAUUUUCGGCGGAUGCCUCCAAA

Key:
Settings in all cases: with glucosamine-6-phosphate
[1] = variants of: B1; test: self-cleavage kobs at 40 uM GlcN6P; higher = faster cleavage; RNA array
Outline: (§1)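 kobs was derived by fitting per-tile medians to one- or two-exponential decays after normalising signals to baseline and to non-cleaving reference variants. Those signals came from barcoded ribozyme variants transcribed in situ by E. coli RNA polymerase on sequenced MiSeq chips, followed through a hybridised Cy3 probe at 37 °C and imaged over ~14 h. Glucosamine-6-phosphate (40 μM to 10 mM) in HEPES/KCl/Mg(OAc)2 buffer was flowed in. Weighted Michaelis–Menten fits across concentrations then gave kcat and KM.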

[2] = variants of: B1; test: self-cleavage kobs at 160 uM GlcN6P; higher = faster cleavage; RNA array
Outline: as §1

[3] = variants of: B1; test: self-cleavage kobs at 640 uM GlcN6P; higher = faster cleavage; RNA array
Outline: as §1

[4] = variants of: B1; test: self-cleavage kobs at 2500 uM GlcN6P; higher = faster cleavage; RNA array
Outline: as §1

[5] = variants of: B1; test: self-cleavage kobs at 10000 uM GlcN6P; higher = faster cleavage; RNA array
Outline: as §1

U55A U56C
self-cleavage kobs at 40 uM GlcN6P [1]: 0.00013 ± 2.5e-05 s⁻¹
self-cleavage kobs at 160 uM GlcN6P [2]: 0.000191 ± 3e-05 s⁻¹
self-cleavage kobs at 640 uM GlcN6P [3]: 0.000919 ± 0.00017 s⁻¹
self-cleavage kobs at 2500 uM GlcN6P [4]: 0.00258 ± 0.00063 s⁻¹
self-cleavage kobs at 10000 uM GlcN6P [5]: 0.00781 ± 0.0012 s⁻¹

U55A U56G
self-cleavage kobs at 40 uM GlcN6P [1]: 0.000292 ± 4.8e-05 s⁻¹
self-cleavage kobs at 160 uM GlcN6P [2]: 0.000454 ± 8.8e-05 s⁻¹
self-cleavage kobs at 640 uM GlcN6P [3]: 0.00368 ± 0.00046 s⁻¹
self-cleavage kobs at 2500 uM GlcN6P [4]: 0.00771 ± 0.0013 s⁻¹
self-cleavage kobs at 10000 uM GlcN6P [5]: 0.0097 ± 0.0019 s⁻¹

G44C U57C
self-cleavage kobs at 40 uM GlcN6P [1]: < 1e-05 s⁻¹
self-cleavage kobs at 160 uM GlcN6P [2]: < 1e-05 s⁻¹
self-cleavage kobs at 640 uM GlcN6P [3]: < 1e-05 s⁻¹
self-cleavage kobs at 2500 uM GlcN6P [4]: < 1e-05 s⁻¹
self-cleavage kobs at 10000 uM GlcN6P [5]: < 1e-05 s⁻¹

G43A C68U
self-cleavage kobs at 40 uM GlcN6P [1]: 0.00208 ± 0.00023 s⁻¹
self-cleavage kobs at 160 uM GlcN6P [2]: 0.00432 ± 0.00092 s⁻¹
self-cleavage kobs at 640 uM GlcN6P [3]: 0.0114 ± 0.0021 s⁻¹
self-cleavage kobs at 2500 uM GlcN6P [4]: 0.00869 ± 0.0023 s⁻¹
self-cleavage kobs at 10000 uM GlcN6P [5]: 0.041 ± 0.0092 s⁻¹

A48G G60C C61G
self-cleavage kobs at 40 uM GlcN6P [1]: < 1e-05 s⁻¹

A42G C71A
self-cleavage kobs at 40 uM GlcN6P [1]: 0.000338 ± 7.5e-05 s⁻¹
self-cleavage kobs at 160 uM GlcN6P [2]: 0.000606 ± 0.00021 s⁻¹
self-cleavage kobs at 640 uM GlcN6P [3]: 0.00207 ± 0.00033 s⁻¹
self-cleavage kobs at 2500 uM GlcN6P [4]: 0.00316 ± 0.0013 s⁻¹
self-cleavage kobs at 10000 uM GlcN6P [5]: 0.0105 ± 0.003 s⁻¹

G41U G44C
self-cleavage kobs at 40 uM GlcN6P [1]: < 1e-05 s⁻¹
self-cleavage kobs at 160 uM GlcN6P [2]: < 1e-05 s⁻¹
self-cleavage kobs at 640 uM GlcN6P [3]: < 1e-05 s⁻¹
self-cleavage kobs at 2500 uM GlcN6P [4]: < 1e-05 s⁻¹
self-cleavage kobs at 10000 uM GlcN6P [5]: < 1e-05 s⁻¹

G51U G62U
self-cleavage kobs at 40 uM GlcN6P [1]: < 1e-05 s⁻¹
self-cleavage kobs at 160 uM GlcN6P [2]: < 1e-05 s⁻¹
self-cleavage kobs at 10000 uM GlcN6P [5]: < 1e-05 s⁻¹

A42U G43U G60U
self-cleavage kobs at 40 uM GlcN6P [1]: < 1e-05 s⁻¹

G44A A48U C67A
self-cleavage kobs at 40 uM GlcN6P [1]: < 1e-05 s⁻¹
self-cleavage kobs at 10000 uM GlcN6P [5]: 0.000216 ± 5.2e-05 s⁻¹

G51A U57G
self-cleavage kobs at 40 uM GlcN6P [1]: < 1e-05 s⁻¹
self-cleavage kobs at 160 uM GlcN6P [2]: < 1e-05 s⁻¹
self-cleavage kobs at 2500 uM GlcN6P [4]: < 1e-05 s⁻¹

U46G U47G G59A U65G
self-cleavage kobs at 40 uM GlcN6P [1]: < 1e-05 s⁻¹

A42G U56A G60U
self-cleavage kobs at 40 uM GlcN6P [1]: < 1e-05 s⁻¹
self-cleavage kobs at 2500 uM GlcN6P [4]: < 1e-05 s⁻¹
self-cleavage kobs at 10000 uM GlcN6P [5]: < 1e-05 s⁻¹

G41C U45G U57C G59A C61U
self-cleavage kobs at 40 uM GlcN6P [1]: < 1e-05 s⁻¹
self-cleavage kobs at 640 uM GlcN6P [3]: < 1e-05 s⁻¹
self-cleavage kobs at 2500 uM GlcN6P [4]: < 1e-05 s⁻¹

A42U A52C
self-cleavage kobs at 40 uM GlcN6P [1]: < 1e-05 s⁻¹
self-cleavage kobs at 160 uM GlcN6P [2]: < 1e-05 s⁻¹
self-cleavage kobs at 640 uM GlcN6P [3]: < 1e-05 s⁻¹
self-cleavage kobs at 2500 uM GlcN6P [4]: < 1e-05 s⁻¹

C50U A64U
self-cleavage kobs at 40 uM GlcN6P [1]: < 1e-05 s⁻¹
self-cleavage kobs at 160 uM GlcN6P [2]: < 1e-05 s⁻¹
self-cleavage kobs at 10000 uM GlcN6P [5]: < 1e-05 s⁻¹

C50U A52U
self-cleavage kobs at 40 uM GlcN6P [1]: < 1e-05 s⁻¹
self-cleavage kobs at 160 uM GlcN6P [2]: < 1e-05 s⁻¹
self-cleavage kobs at 640 uM GlcN6P [3]: < 1e-05 s⁻¹
self-cleavage kobs at 2500 uM GlcN6P [4]: < 1e-05 s⁻¹
self-cleavage kobs at 10000 uM GlcN6P [5]: < 1e-05 s⁻¹

G51A A52C
self-cleavage kobs at 40 uM GlcN6P [1]: < 1e-05 s⁻¹
self-cleavage kobs at 160 uM GlcN6P [2]: < 1e-05 s⁻¹
self-cleavage kobs at 10000 uM GlcN6P [5]: < 1e-05 s⁻¹

U55A C67G
self-cleavage kobs at 40 uM GlcN6P [1]: 0.000126 ± 3.4e-05 s⁻¹
self-cleavage kobs at 160 uM GlcN6P [2]: 0.000104 ± 2.1e-05 s⁻¹
self-cleavage kobs at 640 uM GlcN6P [3]: 0.000179 ± 2.8e-05 s⁻¹
self-cleavage kobs at 2500 uM GlcN6P [4]: 0.00013 ± 2e-05 s⁻¹
self-cleavage kobs at 10000 uM GlcN6P [5]: 0.00061 ± 0.00014 s⁻¹

U45A G59U C70G
self-cleavage kobs at 40 uM GlcN6P [1]: < 1e-05 s⁻¹
self-cleavage kobs at 10000 uM GlcN6P [5]: < 1e-05 s⁻¹

G41A G44A
self-cleavage kobs at 40 uM GlcN6P [1]: < 1e-05 s⁻¹
self-cleavage kobs at 160 uM GlcN6P [2]: < 1e-05 s⁻¹
self-cleavage kobs at 2500 uM GlcN6P [4]: < 1e-05 s⁻¹
self-cleavage kobs at 10000 uM GlcN6P [5]: < 1e-05 s⁻¹

U46A A52U
self-cleavage kobs at 40 uM GlcN6P [1]: < 1e-05 s⁻¹
self-cleavage kobs at 160 uM GlcN6P [2]: < 1e-05 s⁻¹

A48U C50U A52C G63C C71U
self-cleavage kobs at 40 uM GlcN6P [1]: < 1e-05 s⁻¹

A48G U49C
self-cleavage kobs at 40 uM GlcN6P [1]: < 1e-05 s⁻¹
self-cleavage kobs at 160 uM GlcN6P [2]: < 1e-05 s⁻¹
self-cleavage kobs at 640 uM GlcN6P [3]: < 1e-05 s⁻¹
self-cleavage kobs at 2500 uM GlcN6P [4]: < 1e-05 s⁻¹
self-cleavage kobs at 10000 uM GlcN6P [5]: < 1e-05 s⁻¹

G43U C71G
self-cleavage kobs at 40 uM GlcN6P [1]: < 1e-05 s⁻¹
self-cleavage kobs at 160 uM GlcN6P [2]: < 1e-05 s⁻¹
self-cleavage kobs at 640 uM GlcN6P [3]: < 1e-05 s⁻¹
self-cleavage kobs at 10000 uM GlcN6P [5]: < 1e-05 s⁻¹

U47A U55G
self-cleavage kobs at 40 uM GlcN6P [1]: 0.000473 ± 8.1e-05 s⁻¹
self-cleavage kobs at 160 uM GlcN6P [2]: 0.000805 ± 0.00018 s⁻¹
self-cleavage kobs at 640 uM GlcN6P [3]: 0.00869 ± 0.0018 s⁻¹
self-cleavage kobs at 2500 uM GlcN6P [4]: 0.0105 ± 0.0022 s⁻¹
self-cleavage kobs at 10000 uM GlcN6P [5]: 0.0152 ± 0.0031 s⁻¹

A48U A52U C67A
self-cleavage kobs at 40 uM GlcN6P [1]: < 1e-05 s⁻¹
self-cleavage kobs at 10000 uM GlcN6P [5]: < 1e-05 s⁻¹

C50G C58G G66U C68A
self-cleavage kobs at 40 uM GlcN6P [1]: 6.12e-05 ± 1.5e-05 s⁻¹
self-cleavage kobs at 160 uM GlcN6P [2]: 0.000177 ± 4e-05 s⁻¹
self-cleavage kobs at 640 uM GlcN6P [3]: 0.000228 ± 8e-05 s⁻¹
self-cleavage kobs at 2500 uM GlcN6P [4]: 0.000368 ± 6.5e-05 s⁻¹
self-cleavage kobs at 10000 uM GlcN6P [5]: 0.00013 ± 2e-05 s⁻¹

U47G G51A
self-cleavage kobs at 40 uM GlcN6P [1]: < 1e-05 s⁻¹

U45C C58A
self-cleavage kobs at 40 uM GlcN6P [1]: < 1e-05 s⁻¹
self-cleavage kobs at 160 uM GlcN6P [2]: < 1e-05 s⁻¹

U45G C50U A64G
self-cleavage kobs at 40 uM GlcN6P [1]: < 1e-05 s⁻¹
self-cleavage kobs at 640 uM GlcN6P [3]: < 1e-05 s⁻¹

A48C G51A
self-cleavage kobs at 40 uM GlcN6P [1]: < 1e-05 s⁻¹
self-cleavage kobs at 160 uM GlcN6P [2]: < 1e-05 s⁻¹
self-cleavage kobs at 640 uM GlcN6P [3]: < 1e-05 s⁻¹
self-cleavage kobs at 2500 uM GlcN6P [4]: < 1e-05 s⁻¹
self-cleavage kobs at 10000 uM GlcN6P [5]: < 1e-05 s⁻¹

A52G C61U
self-cleavage kobs at 40 uM GlcN6P [1]: < 1e-05 s⁻¹
self-cleavage kobs at 160 uM GlcN6P [2]: < 1e-05 s⁻¹
self-cleavage kobs at 2500 uM GlcN6P [4]: < 1e-05 s⁻¹

A48U G62U
self-cleavage kobs at 40 uM GlcN6P [1]: < 1e-05 s⁻¹
self-cleavage kobs at 160 uM GlcN6P [2]: < 1e-05 s⁻¹
self-cleavage kobs at 640 uM GlcN6P [3]: < 1e-05 s⁻¹
self-cleavage kobs at 2500 uM GlcN6P [4]: < 1e-05 s⁻¹
self-cleavage kobs at 10000 uM GlcN6P [5]: < 1e-05 s⁻¹

U54A C71A
self-cleavage kobs at 40 uM GlcN6P [1]: 0.000351 ± 6.3e-05 s⁻¹
self-cleavage kobs at 160 uM GlcN6P [2]: 0.000583 ± 8.5e-05 s⁻¹
self-cleavage kobs at 640 uM GlcN6P [3]: 0.000818 ± 0.00011 s⁻¹
self-cleavage kobs at 2500 uM GlcN6P [4]: 0.00847 ± 0.0023 s⁻¹
self-cleavage kobs at 10000 uM GlcN6P [5]: 0.0109 ± 0.0026 s⁻¹

C50G U65A
self-cleavage kobs at 40 uM GlcN6P [1]: 6.61e-05 ± 1.9e-05 s⁻¹
self-cleavage kobs at 160 uM GlcN6P [2]: 6.9e-05 ± 3e-05 s⁻¹
self-cleavage kobs at 640 uM GlcN6P [3]: 0.00136 ± 0.00038 s⁻¹
self-cleavage kobs at 2500 uM GlcN6P [4]: 0.000972 ± 0.00037 s⁻¹

A48U C68A
self-cleavage kobs at 40 uM GlcN6P [1]: < 1e-05 s⁻¹
self-cleavage kobs at 640 uM GlcN6P [3]: < 1e-05 s⁻¹

U49C G62C
self-cleavage kobs at 40 uM GlcN6P [1]: < 1e-05 s⁻¹
self-cleavage kobs at 640 uM GlcN6P [3]: < 1e-05 s⁻¹
self-cleavage kobs at 2500 uM GlcN6P [4]: < 1e-05 s⁻¹

U47A U57G
self-cleavage kobs at 40 uM GlcN6P [1]: < 1e-05 s⁻¹
self-cleavage kobs at 10000 uM GlcN6P [5]: 4.75e-05 ± 8.7e-06 s⁻¹

G44U A52G A53U
self-cleavage kobs at 40 uM GlcN6P [1]: < 1e-05 s⁻¹
self-cleavage kobs at 10000 uM GlcN6P [5]: < 1e-05 s⁻¹

G43A C67G C68G
self-cleavage kobs at 40 uM GlcN6P [1]: 5.46e-05 ± 1.7e-05 s⁻¹
self-cleavage kobs at 640 uM GlcN6P [3]: 0.000155 ± 4.7e-05 s⁻¹
self-cleavage kobs at 2500 uM GlcN6P [4]: 6.83e-05 ± 1.7e-05 s⁻¹
self-cleavage kobs at 10000 uM GlcN6P [5]: 7.38e-05 ± 1.4e-05 s⁻¹
